From patent US20190040368A1 come the findings set out here.

This test addresses recombinant human iduronate-2 sulfatase (rhIDS) (human) (UniProt P22304). The experiment in a line: cell-based or functional assay.

Sequence of recombinant human iduronate-2 sulfatase (rhIDS) (human) (P22304 26-550 limits assumed): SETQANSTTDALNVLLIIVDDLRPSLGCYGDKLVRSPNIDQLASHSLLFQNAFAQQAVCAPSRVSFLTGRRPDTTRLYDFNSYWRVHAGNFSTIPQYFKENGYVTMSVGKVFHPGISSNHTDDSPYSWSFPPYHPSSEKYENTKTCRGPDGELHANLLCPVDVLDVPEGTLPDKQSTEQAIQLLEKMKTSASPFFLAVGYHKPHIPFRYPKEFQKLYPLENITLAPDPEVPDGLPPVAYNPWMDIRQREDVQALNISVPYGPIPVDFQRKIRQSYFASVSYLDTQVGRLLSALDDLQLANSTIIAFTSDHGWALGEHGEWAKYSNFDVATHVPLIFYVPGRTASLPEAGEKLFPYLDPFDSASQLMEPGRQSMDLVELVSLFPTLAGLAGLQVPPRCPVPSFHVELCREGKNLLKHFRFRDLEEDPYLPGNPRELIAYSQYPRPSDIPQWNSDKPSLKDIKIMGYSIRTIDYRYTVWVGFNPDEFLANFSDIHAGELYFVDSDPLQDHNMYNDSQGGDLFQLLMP

Turning to “Bos taurus FGE fusion protein (Lip2pre-BtFGE-6HIS-HDEL) (from UniProt Q0P5L5 34-374) (enzyme)”, the % FGly (LC-MS); 1 copy rhIDS, 1 copy BtFGE (POX) came to 100% and the % FGly (LC-MS); 1 copy rhIDS, 1 copy BtFGE (POX), 1 copy hPDI (POX) was 100%.
Take “Dendroctonus ponderosa Lip2-DpFGE-His6-HDEL fusion construct (enzyme)”: the % FGly (LC-MS); co-expression with DpFGE is 25%.
